B1: YANG-1301 (antibody, V domains shown)
VH: QVQLVESGGGVVQPGRSLRLSCAASGFTFSSYGMHWVRQAPGKGLEWVAVIWYDGSNKFYADSVKGRFTISRDNSKNTLYLQMNSLKAEDTAVYYCARDTWIGESDTSWLDPWGQGTLVTVSS
VL: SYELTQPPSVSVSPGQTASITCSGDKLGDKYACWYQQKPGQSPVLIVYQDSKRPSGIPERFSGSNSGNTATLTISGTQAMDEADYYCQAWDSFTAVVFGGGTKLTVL
B2: YANG-1402 (antibody, V domains shown)
VH: EVQLVESGGGLIQPGGSLRLSCAASGVTVSSNYMNWVRQAPGKGLEWVSVIYSGGSTYYADSVKGRFTISRDNSKNTLYLQMNSLRVEDTAVYYCARDIGDYGMDVWGQGTTVTVSS
VL: DIQLTQAPSFLSASVGDRLTITCWASQGISSYLAWYQQKPGKAPKILIYAASTLQSGVPSRFSGSGSGTEFTLTISSLQPEDFATYYCQQLNSYPLIFGGGTKVEIK
B3: YANG-2102 (antibody, V domains shown)
VH: EVKLVESGGGLVQRGGSLRLSCAASGFTFSSHAMYWVRQIPGKGLEWVAGIGVAGDTFYPDSVKGRFTISRENANNSLSLQMDSLRTGDTAIYYCVRDGYSGSYPYHYYGMDVWGQGITVVVSS
VL: DIQLTQSPSSLSASVGDSVTITCRASQGIDTYLAWFQQKPGKAPKSLIYVASSLQSGVPSKFSGSGSGTDFTLTISSLLPEDFATYYCQQYKSYPWTFGQGTKVEIK
B4: YANG-2104 (antibody, V domains shown)
VH: EVKLVESGGGLVQPGGSLRLSCAASGFTFSSHAMYWVRQSPGKGLEWVSGIGVAGDTFYVDSVKGRFTISRENARNSLSLQMNSLRAGDTAVYYCARDGYSGTHPYHFYGMDVWGQGITVVVSS
VL: DIQMTQSPSSLSASVGDSVTITCRASQDINTYLAWFQQKPGKAPKSLIYVASSLQSGVPSKFSGSGSGTDFTLTISSLLPEDFATYYCQQYKSYPWTFGQGTKVEIK
B5: YANG-2105 (antibody, V domains shown)
VH: EVQLVESGGGLIQPGGSLRLSCAASGLTVSSNYMNWVRQAPGKGLEWVSVIYSGGSTFYTDSVKGRFTISRDNSKNTLNLQMNSLRAEDTAVYYCARDLGIRGGMDVWGQGTTVTVSS
VL: DIQLIQSPSFLSASVGDRVTITCWASQGISSYLAWYQQKPGKAPNLLIYAASTLQSGVPSRFSGSGSGTEFTLTISSLQPEDFATYYCQQLDGSLTFGGGTKVEIK
B6: YANG-2101 (antibody, V domains shown)
VH: EVQLVESGGGLVQPGGSLRLSCAASGFTFSLYDMHWVRQATGKGLEWVAGVGIAGDTIYPDSVKGRFTISRENAKNSFFLQMNRLRAGDTAVYYCVRGGTGTTFFDYWGQGVLVTVSS
VL: DIQMTQSPSSLSASVGDRVTVTCRASQDITNYLAWFQQKPGKAPKSLIYSASSLQGGTPSKFSGSGSGTEFTLTISSLQPEDFATYYCQQYNSFPLTFGGGTKVEIK
B7: YANG-1302 (antibody, V domains shown)
VH: QVQLVESGGGAVQPGRSLRLSCRASGFTFSSFGMNWVRQVPGKGLVWVAGIWYDGRNKYYADSVKGRFTISRENSKNMLYLQMNSLRAEDTAVYYCARDQDSGFDGNWFGPWGQGTMVTVSS
VL: SYELTQPPSMSVSPGQTASITCSGDNLGDKYVCWYQQRPGQSPVMVIFQDSTRPSGIPERFSGSNSGNTATLTISGTQAMDEADYYCQAWDSNTAVFGGGTKLTVL
B8: YANG-1403 (antibody, V domains shown)
VH: QVQLVESGGGVVQPGRSLRLSCAASGFTFSNYGMHWVRQAPGKGLEWVAVIWYDGSNKYYADSVKGRFTISRDNSKNTLYLQMNSLRAEDTAVYFCVRETVTDGMDVWGQGTTVTVSL
VL: NIQMTQSPSAMSASVGDRVTITCRARQDISNYLAWFQQKPGKVPKHLIYAASSLLSGVPSRFSGSGSGTEFTLTISSLQPEDFATYYCLHHNGYPWTFGQGTKVEIK
B9: YANG-2106 (antibody, V domains shown)
VH: QVQVVESGGGVVQPGRSLRLSCSASGFTFSTYGMHWVRQAPGKGLEWVAVIWYDGSNKYYADSVKGRFIISRDNSKNTLYLQMSSLRPDDTAVYYCVREGVADGMGVWGQGTTVTVSS
VL: NIQMTQSPSAMSASVGDRVTITCRARQDISTYLAWFQQKPGKVPKHLIYAASTLLSGVPSRFGGSGSGTEFTLTITSLQPEDFATYYCLHHNNYPWTFGQGTKVEIK
B10: YANG-1401 (antibody, V domains shown)
VH: QVHLQESGPGLVKPSGTLSLTCAVSGGSFSQINWWSWVRQSPGKGLEWIGEIYHSGSTNYNPSLKSRVTMSVDKSKNQFSLALNSVTAADTAVYYCARGYYGDNWFDSWGQGTLVTVSS
VL: DIQMTQSPSSLSASIGDRVTITCRASQGISNWLVWYQQKPEKAPKSLIYAASSLQSGVPSRFSGSGSGTDFTLTISSLHPEDFATYYCQQYSDYPLTFGGGTKVEIK
B11: YANG-2103 (antibody, V domains shown)
VH: EAQLVESGGGLIQSGGSLRLSCIASGLTVNSNYMNWVRQAPGKGLEWVSVIYSGGTTFYADSVKGRFTISRDNSKNTLYLQMTSLRAEDTAVYYCAREGYGMDVWGQGTTVTVSS
VL: SYVLTQPPSVSVAPGKTARINCGGNNFGSKSVHWYQQKPGQAPVLVIYYDSDRPSGIPERFSGSNSGNTATLTISRVEAGDEADYYCQVWDNSSDHFVFGAGTKVTVL
B12: YANG-1305 (antibody, V domains shown)
VH: QVQLVESGGGVVQPGKSLRLSCAASGFAFSSFGMHWVRQAPGTGLEWLAIISFEGTKKYYADSMKGRITISRDNSKNTLYLQMNSLRAEDTAVYYCAADYGDYDDYYYGVHVWGQGTTVTVSS
VL: DIQMTQSPSSLSASVGDRVTITCRASQGIANYLAWYQQKPGKVPKLLIYATSTLQSGVPSRFSGSGSGTDFTLTISSLQPEDVAIYYCQKYDSAPFTFGPGTKVDFK
B13: YANG-2107 (antibody, V domains shown)
VH: QVQLQESGPGLVKPSGTLSLTCAVSGGSIRSSNWWIWVRQSPGKGLEWIGEIYHGGNTNYNPSLKSRVTLSVDKSKNQFSLKLSSVTAADTAVYYCARALYDIGGVFDIWGQGTMVTVSS
VL: QSALTQPASVSGSPGQSISISCTGTSSDIGGYNYVSWYQQHPGKAPKLMIYDVSERPSGVSNRFSGSKSGNTASLTISGLQAEDEGDYYCCSYAANSNVVFGGGTKLSVL
B14: YANG-1303 (antibody, V domains shown)
VH: QVQLVQSGTEMKEPGASVKVSCKASGYTFTNYGITWVRQAPGQGLEWMGWLNTNNGDTNYAQKLQGRVTMTTDTSTSTAYMELRSLRSDDTAVYYCARDSVTTYDYWGQGTLVTVSS
VL: SYELTQPPSVSVSPGQTARITCSGDALPKKYAYWFQQKSAQAPVLVIYEDSKRPSGIPERFSGSSSGTMATLTINGAQVEDEAAYYCYSLDSSGNHWVFGGGTKLTVL
B15: YANG-1304 (antibody, V domains shown)
VH: QVQLQQWGAGLVKTSETLSLTCAVYGGSFNDHYWSWIRQPPGKGLEWIGEINHSGSTNYNPSLKSRVTMSLDTSKNQFSLKLRSLTAADTAMYYCAIEGIWGQGAMVTVSS
VL: SYELTQPPSVSVSPGQTARITCSGDALPIKYVHWYQQKSGQAPVLVIYEDSKRPSGIPERISGSSSGTMATLTMSGAQVEDEADYYCYSTDSSGNHWVFGGGTKLTVL

This assay has as its target SARS-CoV-2 spike protein bearing furin mutation and truncation in retention sequence (on pseudoviral envelope) (SARS-CoV-2, UniProt P0DTC2 14-1273). In words: cell-based or functional assay.
For the molecule B1, the “PV neutralisation IC50” value amounted to 0.52 nM and the “PV neutralization % (Ab 1 ug/mL)” value was 60.4%.

For the molecule B2, the “PV neutralization % (Ab 1 ug/mL)” value turned out to be 94.5%.

Consider B3, for which the “PV neutralization % (Ab 1 ug/mL)” value stood at 99.4%.

As to B4, the “PV neutralization % (Ab 1 ug/mL)” value was found to be 99.3%.

For the molecule B5, the “PV neutralization % (Ab 1 ug/mL)” value amounted to 99.6%.

Turning to B6, the “PV neutralization % (Ab 1 ug/mL)” value amounted to 100%.

Turning to B7, the “PV neutralisation IC50” value worked out at 0.23 nM and the “PV neutralization % (Ab 1 ug/mL)” value is 60.3%.

Consider B8, for which the “PV neutralization % (Ab 1 ug/mL)” value stood at 99.3%.

Take B9: the “PV neutralization % (Ab 1 ug/mL)” value was 93.3%.

For the molecule B10, the “PV neutralisation IC50” value came out at 0.53 nM and the “PV neutralization % (Ab 1 ug/mL)” value was found to be 91.6%.

With B11, the “PV neutralization % (Ab 1 ug/mL)” value is 97.7%.

Regarding B12, the “PV neutralisation IC50” value worked out at 0.42 nM and the “PV neutralization % (Ab 1 ug/mL)” value came to 60.5%.

B13: the “PV neutralisation IC50” value came to 0.3 nM and the “PV neutralization % (Ab 1 ug/mL)” value came out at 61.2%.

Turning to B14, the “PV neutralization % (Ab 1 ug/mL)” value came out at 46.3%.

Regarding B15, the “PV neutralization % (Ab 1 ug/mL)” value was 41.5%.

The record behind these values is patent publication US20250026813A1 (published 2025).
